This note sets out measurements from patent publication US10877024B2, “Methods of determining interferon having direct inhibitory effects on tumors and uses thereof” (SUPERLAB FAR EAST LIMITED, priority 2015, dated 2020).

The subject of one experiment is A549 xenograft tumors. As to the kind of experiment: Tumor growth of A549 xenografts in nude mice. Format: in vivo, BALB/c nude mice. Conditions: 100 μg/100 μl per mouse intratumorally, every other day, 12 times; vs PBS. How it is done:
This experiment was conducted in accordance to the National Institutes of Health Guide for the Care and Use of Laboratory Animals. Female BALB/c nude mice, 4-5 weeks old, were obtained from Shanghai Experimental Animal Center (Shanghai, China). About 5×10^6 A549 cells were subcutaneously injected into each mouse to establish xenograft tumors. […] The tumors were measured every three (3) days and the tumor volumes were calculated as follows: tumor volume (mm^3)=(length×width^2)/2. Data are shown as Mean±SD (n=8).

Experiment [1] has as its system beta-catenin/TCF mediated transcriptional activity. As to the kind of experiment: Beta-catenin/TCF transcription reporter assay (TOPFlash). Conditions: 10 mcg/ml, 24 hours. Format: cell-based, human. How it is done:
The effect of rSIFN-co on Wnt/Beta-catenin signaling in vitro was determined. Cancer cells were plated in 96-well plates (at 1×10^4 cells per well), and incubated for 12 hours, after which they were transiently transfected with 100 ng TOPFlash (Millipore Corporation, Billerica, Mass., USA). […] After interferon treatment for 24 hours, luciferase assay was performed using the Dual Luciferase Assay System kit according to the manufacturer's protocols (Cat #:E1960, Promega). Relative luciferase activity was reported as a ratio of firefly/renilla luciferase activity. Experiments were performed in triplicate.

In the next experiment the test system is beta-catenin. In words: Beta-catenin protein level by Western Blot. As to conditions: 10 mcg/ml, 24, 48, 72 hr. Format: cell-based, human. How it is done: Cancer cells, A549 and Sw480, were cultured to about 85% confluency and put into 6 well plates. […] After treatment, the cells were harvested for Western Blot to detect the beta-catenin protein level, using its specific antibody, with GAPDH as endogenous loading control. The experiment was conducted in triplicate.
To determine the expression of various proteins, cells were harvested from the plates and total cellular protein were extracted using extraction reagents (Cat #: P0013) according to the manufacturer's protocol (Beyotime, China). The total protein concentration was determined by the Lowry Protein Assay kit (Bio-Rad, USA). […] The membranes were blocked with 5% skimmed milk, bovine serum albumin, 10 mmol/L Tris-HCl at pH 8.0, 150 mmol/L NaCl, and 0.05% Tween 20 overnight at 4° C. The blocked membranes were then incubated with primary antibodies (1:1000 dilutions), followed by secondary HRP-conjugated antibodies. Blots were visualized using Luminescence/Fluorescence Imaging LAS4000 System (GE Healthcare Life Sciences, USA) with super signal west pico chemiluminescent substrate kit (Thermo scientific, USA).
For this determination, the primary antibodies used were mouse monoclonal anti-beta-catenin antibodies (1:1000; Santa Cruz Technology, Santa Cruz, Calif.) and mouse monoclonal anti-GAPDH antibodies (1:2000) (Kangwei Biotechnology, China). […]
In general terms: In western blotting, separated proteins are transferred to a membrane and probed.

The subject of the next experiment is FZD6. In words: qPCR of Wnt-related receptor mRNA. In kind it is cell-based, human. As to conditions: 10 μg/ml, 24 hr. As for the experimental part: The regulation of LRP6/FZD6 by rSIFN-co was investigated. This was conducted by qPCR as performed in Example 9. […] After 24 hr of treatment, total cellular mRNA was isolated using TRIZOL Reagent, and cDNA was subjected to qPCR using specific primers of LRP6 and FZD6. The primers used were: LRP6 sense primer: 5′-[…]-3′ (SEQ ID NO: 4) and antisense primer: 5′-[…]-3′ (SEQ ID NO: 5), and FZD6 sense primer: 5′-[…]-3′ (SEQ ID NO: 6) and antisense primer: 5′-[…]-3′ (SEQ ID NO: 7). Experiments were conducted in triplicate and normalized with the Mock control group. Results were recorded as relative mRNA level of either LRP6 or FZD6 relative to GAPDH.

A further experiment deals with DKK-3. In words: qPCR of tumor suppressor gene. In kind it is cell-based, human. Conditions: A549 cells, 10 mcg/ml, 24 hr. In general terms: In qPCR the cycle at which signal appears reflects the starting amount.
For a further experiment, the system named is colon cancer SW620 cells. As to the kind of experiment: Cell migration assay across microporous membranes. In kind it is cell-based, human. As to conditions: 10 μg/ml, 24 hr. How it is done:
(§1) The cell migration assay was performed using 8 μm cell culture inserts in 24-well plates (Becton-Dickinson Biosciences, NJ, USA). Warm (37° C.) bicarbonate based culture medium without FBS was added to the interior of the inserts and to the bottoms of the wells, and were allowed to rehydrate for 2 hr in humidified tissue culture incubator at 37° C. in 5% CO2. After rehydration, the culture medium was carefully removed. […] In the lower compartment of the 24-well plates were placed 500 μl of complete medium with 10% FBS. After 24 hr at 37° C. under the regular culture conditions, the non-migrated cells in the upper part of the chamber membranes were removed with a cotton swab. The lower part of the culture inserts were fixed with 4% paraformaldehyde and stained with 2% crystal violet. The number of migrated cells on the opposite side of the chamber membranes from where the cells were placed was counted in each of the triplicate wells. Each experiment was repeated at least two times, each time with triplicate wells.

In a further experiment the test system is lung cancer A549 cells. As to the kind of experiment: Cell migration assay across microporous membranes. Format: cell-based, human. As to conditions: 10 μg/ml, 24 hr, untreated Mock about 30. How it is done:
as §1

Experiment [2] relates to STAT1 (Tyr701), STAT2 (Tyr690), STAT3(Tyr705). In words: STAT phosphorylation by Western Blot. Conditions: A549 cells and Hela cells, 10 μg/ml, 0-240 minutes. In kind it is cell-based, human. From the text:
After treatment, the cells were collected, cellular proteins were extracted and loaded onto SDS-PAGE […] for Western Blot analysis to observe the phosphorylation of STAT1 (Tyr701), STAT2 (Tyr690), and STAT3(Tyr705). GAPDH was used as a loading control.
The primary antibodies used were: STAT1 (1:1000, Cat #: 9175S), Tyr701 phosphorylated-STAT1 (1:1000, Cat #: 9167S), STAT2 (1:500, Cat #4594), Tyr690 phosphorylated-STAT2 (1:1000, Cat #: 441S), STAT3 (1:1000, Cat #: 9132), Tyr705 phosphorylated-STAT3 (1:1000, Cat #: 9145S). Anti-mouse (Cat #:sc-2005) or rabbit (Cat #: sc-2004) or goat (Cat #: sc-2020) HRP-conjugated secondary antibodies (Santa Cruz Technology, Santa Cruz, Calif.) were used at concentrations of 1:2000. Blots were visualized by use of Luminescence/Fluorescence Imaging LAS4000 System (GE Healthcare Life Sciences, USA) with super signal west pico chemiluminescnet substrate kit (Thermo Scientific, USA).

Description for DKK-3: After 24 hr of treatment, total cellular mRNA was isolated using TRIZOL Reagent, and cDNA was synthesized, and further subjected to qPRC using specific primers for DKK3, KLF4 and BATF2.
The experiment was conducted in triplicate and normalized with the mock control group.

B1: rSIFN-co: Recombinant super-compound interferon; amino acid sequence SEQ ID NO: 1 (same as INFERGEN), encoded by novel nucleotide sequence SEQ ID NO: 2 (protein)
chain: MCDLPQTHSLGNRRALILLAQMRRISPFSCLKDRHDFGFPQEEFDGNQFQKAQAISVLHEMIQQTFNLFSTKDSSAAWDESLLEKFYTELYQQLNDLEACVIQEVGVEETPLMNVDSILAVKKYFQRITLYLTEKKYSPCAWEVVRAEIMRSFSLSTNLQERLRRKE
modifications: Amino acid sequence of recombinant interferon
Turning to B1, the “inhibition of tumor growth (tumor volume)” value in the experiment on A549 xenograft tumors is “almost completely inhibit growth of established tumors”. For the same molecule, the Firefly/Renilla ratio result in experiment [1] (A549 cells, Control about 310) is on record as “about 100”; in experiment [1] (H460 cells, Control about 450), “about 280”; in experiment [1] (H1299 cells, Control about 800), “about 500”; in experiment [1] (HT-29 cells, Control about 300), “about 200”; in experiment [1] (SW620 cells, Control about 1500) it was “less than 100”. Also, the beta-catenin protein level result in the experiment with beta-catenin (A549 cells) is “dramatically decreased beta-catenin protein level after treatment for 2 days (48 hr)”; in the experiment on beta-catenin (SW480 cells) it was “obvious after 72 hours of treatment”. In addition, the “relative expression of FZD6 mRNA” value with FZD6 (A549 cells), with FZD6 (H460 cells), with FZD6 (HT-29 cells) and in the experiment on FZD6 (SW620 cells) was “significant reduction” in each case. Also, in the experiment with DKK-3, the “relative mRNA expression level of DKK-3” value was “dramatically increased”. Besides, the tumor cell migration result in the experiment with colon cancer SW620 cells is on record as “Significant inhibition”. Moreover, the “mean number of migrating cells per field” value in the experiment with lung cancer A549 cells is reported as “about 10 cells per field”. The “phosphorylation patterns for STAT1, STAT2 and STAT3 (JAK/STATs signaling level)” value in experiment [2] is on record as “no different from that mediated by IFN alpha-2b”.
